From patent publication US20240393292A1, “ALLERGY ANTIGEN AND EPITOPE THEREOF” (HOYU CO., LTD., priority 2019, published 2024)

B1: Gamma-gliadin (protein, listed as Triticum aestivum)
chain: MKIFMVFALLVASTTITTATAQLDPRIHDQERPQQSFLQQQPLIQQQPYPPQEPQQPLFPQKEPQQPFPLQQPQYQQQQPYPQQPLPQEQLPQQHLFPQQPPQQQFPQQMPLPHQQQTFPQQQQQQQQQEQLPQQLPQFPQQQPFSQYQQPLTQQPYSQEQPLPQQQPSVEEKQQLNLCKEFLLQQCNPEEKLSLLQSVIPFLRPKTSQQNSCQLKRLQCCRQLAHISEPSRCPAIHNIVHAIVMQQQHVDRGFGQPQPQQLGQEMPMQPQHQLGQHSILPQQLAQYKLVRLLVIQTLPMLCNVHVPSDCYTITAPFGSMTAYNGGQ
modifications: posttranslational modification
notes: same protein as spot 16, differing posttranslational modification
B2: Globulin 3 (protein, listed as Triticum aestivum)
chain: MATRARVTIPLLFLLGTSLLFAAAVSASHDEEEDRRGGRSLQQCVQRCQQDRPRYSHARCVQECRDDQQQHGRHEQEEQGRGHGRHGEGEREEEQGRGRGRHGQGEREEEQGRGRGRRGEGERDEEHGDGRRPYVFGPRSFRRIIRSDHGFVKALRPFDEVSRLLRGIRNYRVAIMEVNPRAFVVPGLTDADGVGYVAQGEGVLTVIENGEKRSYTVRQGDVIVAPAGSIMHLANTDGRRKLVIAKILHTISVPGKFQYFSAKPLLASLSKRVLTAALKTSDERLGSLLGSRQGKEEEEKSISIVRASEEQLRELRRQASEGDQGHHWPLPPFRGDSRDTFNLLEQRPKIANRHGRLYEADARSFHALAQHDVRVAVANITPGSMTAPYLNTQSFKLAVVLEGEGEVEIVCPHLGRDSERREQEHGKGRWRSEEEEDDRRQQRRRGSGSESEEEQDQQRYETVRARVSRGSAFVVPPGHPVVEIASSRGSSNLQVVCFEINAERNERVWLAGRNNVIAKLDDPAQELTFGRPAREVQEVFRAKDQQDEGFVAGPEQQQEHERGDRRRGDRGRGDEAVEAFLRMATAAL
modifications: posttranslational modification
notes: same protein as spot 12, differing posttranslational modification

Tested on: IgE antibody in the serum of a wheat-allergic patient
Experiment: Immunoblotting of two-dimensional electrophoresis pattern of wheat proteins with patient serum
Assay type: binding, human
Conditions: immunoblot of 2D electrophoresis; compared with serum of non-wheat-allergic subject
Method: Identification of antigens by immunoblotting was carried out by taking all the steps up to the step of “Second-dimensional SDS-PAGE” as described above in Example 1, followed by the steps of “Transfer to membrane”, “Immunoblotting” and “Analysis” as described below.
Transfer to membrane was done using the following transfer system and transfer buffer. • Transfer system: XCell SureLock Mini-Cell and XCell II Blot Module (produced by Life Technologies) • Transfer buffer: NuPAGE Transfer Buffer (×20) (produced by Life Technologies), used in a form diluted […] with milliQ water. […]
The immunoblots obtained with the serum from the wheat-allergic patient were compared with those obtained with the control serum from the non-wheat-allergic subject. For protein present in wheat, in immunoblotting using the serum from the wheat-allergic patient, 16 spots were detected (FIG. 2), which are different from the spots detected when the serum of the non-wheat-allergic subject was used and different from those of the known wheat allergen proteins. […]

Row | Molecule | specific binding of IgE antibody in serum of wheat-allergic patient to protein spot
1 | B1 | binding to IgE antibodies was confirmed
2 | B2 | binding to IgE antibodies was confirmed
